Experimental findings from patent CN103044552A (INST PATHOGEN BIOLOGY CAMS, dated 2013) are described below.

Experiment [1] has as its target DEC-205 (antigen of the SPR measurement, form not stated) (UniProt O60449). Briefly: SPR (CM5 chip coupled with anti-human secondary antibody; gradient 1000-62.5 nM).
The target of experiment [2] is T1, DEC-205分子 (human, on monocyte-derived human dendritic cells) (human, UniProt O60449 28-1722).
T1 construct: whole, on cells; The assay itself used whole human DC
Briefly: flow cytometry on human monocyte-derived DC, FITC secondary antibody.

T1 sequence (O60449 28-1722): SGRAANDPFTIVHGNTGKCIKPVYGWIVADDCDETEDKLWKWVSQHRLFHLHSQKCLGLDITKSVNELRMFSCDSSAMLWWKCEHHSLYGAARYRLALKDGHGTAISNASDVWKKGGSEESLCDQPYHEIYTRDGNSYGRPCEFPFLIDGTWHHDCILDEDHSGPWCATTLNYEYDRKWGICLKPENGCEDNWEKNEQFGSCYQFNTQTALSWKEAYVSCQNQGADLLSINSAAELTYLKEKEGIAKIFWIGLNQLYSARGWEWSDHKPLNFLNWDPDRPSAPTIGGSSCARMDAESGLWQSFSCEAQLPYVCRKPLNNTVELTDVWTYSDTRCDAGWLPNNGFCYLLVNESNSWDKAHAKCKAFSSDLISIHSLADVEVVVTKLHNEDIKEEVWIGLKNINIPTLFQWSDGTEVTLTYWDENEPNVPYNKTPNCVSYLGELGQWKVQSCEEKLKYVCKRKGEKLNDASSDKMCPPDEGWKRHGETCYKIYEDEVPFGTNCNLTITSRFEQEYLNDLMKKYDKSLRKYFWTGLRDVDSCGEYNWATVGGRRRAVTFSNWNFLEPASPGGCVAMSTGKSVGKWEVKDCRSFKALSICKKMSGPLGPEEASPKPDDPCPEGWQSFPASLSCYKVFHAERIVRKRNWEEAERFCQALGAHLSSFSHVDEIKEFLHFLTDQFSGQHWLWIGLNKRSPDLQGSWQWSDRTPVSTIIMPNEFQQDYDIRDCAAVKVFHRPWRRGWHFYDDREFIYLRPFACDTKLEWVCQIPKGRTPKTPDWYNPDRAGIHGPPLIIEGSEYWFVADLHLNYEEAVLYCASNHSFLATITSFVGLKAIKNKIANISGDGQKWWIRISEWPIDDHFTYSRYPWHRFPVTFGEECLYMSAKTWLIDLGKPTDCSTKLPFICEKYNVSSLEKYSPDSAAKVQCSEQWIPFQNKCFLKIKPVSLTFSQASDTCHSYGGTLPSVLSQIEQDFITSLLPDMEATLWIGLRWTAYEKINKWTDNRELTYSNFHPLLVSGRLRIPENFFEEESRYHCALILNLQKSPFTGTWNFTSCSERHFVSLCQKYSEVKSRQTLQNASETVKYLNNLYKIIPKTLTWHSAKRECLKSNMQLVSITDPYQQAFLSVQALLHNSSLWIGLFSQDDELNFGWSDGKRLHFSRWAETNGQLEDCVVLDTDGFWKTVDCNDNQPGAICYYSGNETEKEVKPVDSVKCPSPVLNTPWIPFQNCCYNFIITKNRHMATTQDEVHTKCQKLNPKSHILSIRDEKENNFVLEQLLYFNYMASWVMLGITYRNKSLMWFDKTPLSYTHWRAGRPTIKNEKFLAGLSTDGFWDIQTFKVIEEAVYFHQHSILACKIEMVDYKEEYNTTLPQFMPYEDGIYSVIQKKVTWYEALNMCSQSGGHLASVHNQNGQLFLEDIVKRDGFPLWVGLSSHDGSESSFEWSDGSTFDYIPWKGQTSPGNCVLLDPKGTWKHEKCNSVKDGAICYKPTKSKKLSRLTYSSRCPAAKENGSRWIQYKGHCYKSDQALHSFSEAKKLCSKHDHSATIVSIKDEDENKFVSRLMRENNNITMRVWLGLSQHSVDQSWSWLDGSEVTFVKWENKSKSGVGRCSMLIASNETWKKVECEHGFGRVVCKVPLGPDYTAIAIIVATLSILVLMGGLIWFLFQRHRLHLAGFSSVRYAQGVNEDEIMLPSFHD

B1: 人源化的抗树突状细胞表面DEC-205分子的单克隆抗体 (antibody, V domains shown)
VH: EVQLVESGGGLVQPGRSLRLSCAASGFTFSHYYMAWVRQAPGKGLEWVAYISTDGGTTYYRDSVKGRFTISRDNAKSTLYLQMNSLRAEDTAVYYCTTGQPGYNLDYFDYWGQGTLVTVSS
VL: DIQMTQSPSSLSASVGDRVTITCQASQDIGYWLAWYQLKPGKSPQLLIYGATSLADGVPSRFSGSGSGTDYTLTISSLQPEDIATYYCQQASSVPWTFGGGTKLEIK
notes: FITC-labelled in the internalisation assay
Regarding B1, in experiment [1], the Kd (in general, the concentration at which binding is half-saturated) worked out at 16.7 nM; the koff (as a rule, the first-order rate constant of dissociation) is 0.000137 s⁻¹; the kon – broadly, the second-order rate constant of association – amounted to 8220 M⁻¹ s⁻¹. The binding result in experiment [2] is given as “binds”.
